From US5831007
Where “and” joins values, the source holds several entries; their conditions need not be identical. Equal values may be shown once.

What was measured:
[1] = molecular target: Soluble complex of 125I-IL-12 crosslinked to human IL-12R (human) (UniProt P29460); test: immunoprecipitation of the solubilized 125I-IL-12/IL-12R complex by the immobilized antibody; control
[2] = molecular target: Natural human IL-12 receptor on IL-12R positive human cells (PHA-activated PBMC, K6, Kit-225, YT cells) (human); test: steady state 125I-IL-12 binding to K6 cells, Scatchard, second of 3 sites
[3] = molecular target: Natural human IL-12 receptor on IL-12R positive human cells (PHA-activated PBMC, K6, Kit-225, YT cells) (human); test: steady state 125I-IL-12 binding to YT cells, Scatchard, first of 2 sites
[4] = molecular target: Natural human IL-12 receptor on IL-12R positive human cells (PHA-activated PBMC, K6, Kit-225, YT cells) (human); test: steady state 125I-IL-12 binding to K6 cells, Scatchard, third of 3 sites
[5] = molecular target: Natural human IL-12 receptor on IL-12R positive human cells (PHA-activated PBMC, K6, Kit-225, YT cells) (human); test: equilibrium binding of 125I-IL-12 to PHA-activated PBMCs, Kit-225 and K6 cells, Scatchard, second of 3 sites
[6] = molecular target: Natural human IL-12 receptor on IL-12R positive human cells (PHA-activated PBMC, K6, Kit-225, YT cells) (human); test: equilibrium binding of 125I-IL-12 to PHA-activated PBMCs, Kit-225 and K6 cells, Scatchard, first of 3 sites
[7] = molecular target: Natural human IL-12 receptor on IL-12R positive human cells (PHA-activated PBMC, K6, Kit-225, YT cells) (human); test: steady state 125I-IL-12 binding to YT cells, Scatchard, second of 2 sites
[8] = molecular target: Natural human IL-12 receptor on IL-12R positive human cells (PHA-activated PBMC, K6, Kit-225, YT cells) (human)
[9] = molecular target: Natural human IL-12 receptor on IL-12R positive human cells (PHA-activated PBMC, K6, Kit-225, YT cells) (human); test: steady state 125I-IL-12 binding to PHA-PBMC (5-7 days), Scatchard, third of 3 sites
[10] = molecular target: Natural human IL-12 receptor on IL-12R positive human cells (PHA-activated PBMC, K6, Kit-225, YT cells) (human); test: steady state 125I-IL-12 binding to PHA-PBMC (5-7 days), Scatchard, first of 3 sites
[11] = molecular target: Natural human IL-12 receptor on IL-12R positive human cells (PHA-activated PBMC, K6, Kit-225, YT cells) (human); test: steady state 125I-IL-12 binding to Kit-225 cells, Scatchard, first of 3 sites
[12] = molecular target: Natural human IL-12 receptor on IL-12R positive human cells (PHA-activated PBMC, K6, Kit-225, YT cells) (human); test: steady state 125I-IL-12 binding to Kit-225 cells, Scatchard, second of 3 sites
[13] = molecular target: Natural human IL-12 receptor on IL-12R positive human cells (PHA-activated PBMC, K6, Kit-225, YT cells) (human); test: steady state 125I-IL-12 binding to PHA-PBMC (5-7 days), Scatchard, second of 3 sites
[14] = molecular target: Detergent solubilized IL-12R from extracts of PHA-activated PBMC, Kit-225 or K6 cells (human); test: steady state binding of 125I-IL-12 to proteins immunoprecipitated by immobilized 2-4E6 from solubilized cell extracts, Scatchard (FIG. 14, K6 cells)
[15] = molecular target: Natural human IL-12 receptor on IL-12R positive human cells (PHA-activated PBMC, K6, Kit-225, YT cells) (human); test: equilibrium binding of 125I-IL-12 to PHA-activated PBMCs, Kit-225 and K6 cells, Scatchard, third of 3 sites
[16] = molecular target: Natural human IL-12 receptor on IL-12R positive human cells (PHA-activated PBMC, K6, Kit-225, YT cells) (human); test: steady state 125I-IL-12 binding to Kit-225 cells, Scatchard, third of 3 sites
[17] = molecular target: Natural human IL-12 receptor on IL-12R positive human cells (PHA-activated PBMC, K6, Kit-225, YT cells) (human); test: steady state 125I-IL-12 binding to K6 cells, Scatchard, first of 3 sites

Chain of Recombinant human IL-12 (Interleukin-12) (P29460 23-328): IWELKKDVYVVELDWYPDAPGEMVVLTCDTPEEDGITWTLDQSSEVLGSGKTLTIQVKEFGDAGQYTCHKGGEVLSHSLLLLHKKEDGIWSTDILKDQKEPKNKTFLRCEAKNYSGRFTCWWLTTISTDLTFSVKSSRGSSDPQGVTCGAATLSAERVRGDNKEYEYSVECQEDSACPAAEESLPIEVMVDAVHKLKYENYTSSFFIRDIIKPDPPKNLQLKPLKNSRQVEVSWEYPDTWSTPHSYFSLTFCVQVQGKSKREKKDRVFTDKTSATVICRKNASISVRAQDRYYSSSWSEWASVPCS
Chain of Recombinant human IL-12 (Interleukin-12) (chain): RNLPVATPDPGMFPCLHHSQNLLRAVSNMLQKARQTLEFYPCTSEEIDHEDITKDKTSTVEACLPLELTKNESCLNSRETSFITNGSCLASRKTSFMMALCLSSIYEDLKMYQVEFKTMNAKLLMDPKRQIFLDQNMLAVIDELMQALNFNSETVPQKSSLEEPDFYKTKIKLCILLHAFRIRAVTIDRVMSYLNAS

| Substance | I.P. assay (cpm bound) [1] [cpm] | Kd [2] [nM] | Kd [3] [pM] | Kd [4] [nM] | Kd [5] | Kd [6] | Kd [7] [nM] | 3H-TdR incorporation of PHA-activated PBMC [8] [cpm] | Kd [9] [nM] | Kd [10] [nM] | Kd [11] [nM] | Kd [12] [nM] | Kd [13] [nM] | Kd [14] [nM] | Kd [15] | Kd [16] [nM] | Kd [17] [nM] |
| --- | --- | --- | --- | --- | --- | --- | --- | --- | --- | --- | --- | --- | --- | --- | --- | --- | --- |
| Control mAb (Table 1) (antibody) | 402 | – | – | – | – | – | – | – | – | – | – | – | – | – | – | – | – |
| Recombinant human IL-12 (Interleukin-12) (from UniProt P29460) (ligand) | – | 0.057 | 6 | 2.4 | 0.05 nM and 0.2 nM | 0.005 nM and 0.02 nM | 0.109 | 38800 | 1.8 | 0.018 | 0.023 | 0.21 | 0.084 | 0.188 | 2 nM and 6 nM | 2.36 | 0.016 |
